Measurements published in patent US20210030841A1 (KEROS THERAPEUTICS, published 2021).

T1: growth differentiation factor 11 (GDF11) (UniProt O95390 299-407)
T1 construct: the embodiments speak of human GDF-11
T1 sequence (looked up): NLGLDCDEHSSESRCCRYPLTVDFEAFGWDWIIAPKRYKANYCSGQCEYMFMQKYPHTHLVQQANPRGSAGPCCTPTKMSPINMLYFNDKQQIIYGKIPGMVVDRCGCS

T2: Activin A (UniProt P08476 311-426)
T2 construct: the embodiments speak of human activin A
T2 sequence (looked up): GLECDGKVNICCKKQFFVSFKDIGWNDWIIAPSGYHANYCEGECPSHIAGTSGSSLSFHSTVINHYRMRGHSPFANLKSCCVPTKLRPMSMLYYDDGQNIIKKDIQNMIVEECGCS

T3: Activin B (UniProt P09529 293-407)
T3 construct: the embodiments speak of human activin B
T3 sequence (looked up): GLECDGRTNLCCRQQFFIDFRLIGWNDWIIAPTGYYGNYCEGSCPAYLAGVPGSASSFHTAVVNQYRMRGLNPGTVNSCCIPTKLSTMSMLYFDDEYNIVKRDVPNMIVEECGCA

T4: BMP-9 (UniProt Q9UK05 320-429)
T4 construct: the embodiments speak of human BMP9; also called bone morphogenetic protein 9
T4 sequence (looked up): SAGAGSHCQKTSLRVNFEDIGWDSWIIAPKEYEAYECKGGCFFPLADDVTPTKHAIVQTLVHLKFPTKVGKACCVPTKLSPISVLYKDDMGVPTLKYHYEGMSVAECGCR

B1: ActRIIa/b+ variant (SEQ ID NO: 150) (receptor, not shown: a dimerising Fc or GST)
chain: GAILGRSETQECLFYNANWELERTNQTGVERCEGEKDKRLHCYATWRNISGSIEIVAKGCWLDDFNCYDRTDCVETEENPQVYFCCCEGNMCNEKFSYFPEMEVTQPTS
B2: ActRIIa/bΔ9 min variant (SEQ ID NO: 6) (receptor, not shown: a dimerising Fc or GST)
chain: AILGRSETQECLFYNANWELDRTNQTGVEPCEGEKDKRLHCFATWKNISGSIEIVKKGCWLDDINCYDRTDCVETKENPQVYFCCCEGNMCNEKFSYFPEMEVTQPTS
notes: Engineered variant of the human ActRIIa extracellular portion

Legend:
Experiment in all cases: SPR, Biacore 3000; receptor captured on chip, ligand in solution
[1] = biological target: T1, growth differentiation factor 11 (GDF11)
Description: (§1) The Biacore 3000 was used to measure the kinetics of the interactions between the ActRIIa variants and the ligands Activin A, Activin B, growth differentiation factor 11 (GDF11), and BMP-9. ActRIIa variants were transiently expressed in HEK293 cells and purified from the conditioned media using Protein-A Sepharose chromatography. The ActRIIa variants were immobilized on the chip (CM4 or CM5) with capture antibodies ([…]) in flow cells 2-4 to ensure proper orientation. Flow cell 1 was used as a reference cell to subtract any nonspecific binding and bulk effects. HBS-EP+ buffer from GE Healthcare™ was used as a running buffer. Each ligand was run in a concentration series at 40 μl/min to avoid mass transport effects. The data was analyzed using Scrubber2 by BioLogic™ Software to calculate the KD of each interaction (Table 5).

Activin A = biological target: T2, Activin A
Description: as §1

Activin B = biological target: T3, Activin B
Description: as §1

BMP-9 = biological target: T4, BMP-9
Description: as §1

| Binder | binding result [1] | Kd (Activin A) [nM] | Kd (Activin B) [nM] | Kd [1] [nM] | Kd (BMP-9) [nM] |
| --- | --- | --- | --- | --- | --- |
| B1 | binds | – | – | – | – |
| B2 | – | 0.31 | 0.088 | 0.114 | 17 |
